This passage reports Kd results from paper PMC7793522.

In the assay the target is synthetic peptide on H-2Kb (mouse). Put plainly: data from [108]; method not given; soluble, other.

As to YAe62, the Kd (commonly the constant that tells how readily two partners part at equilibrium) is 15 µM.
